In the RNAGym collection of RNA variant scans (doi:10.7554/elife.80360):

B1: Hairpin Ribozyme (parent)
chain: GUCCUCUUUCACGUGCGCGUGAAAGAGAGAAGUGAACCAGAGAAACACACGUUGUGGUAUAUUACCUGGUA

Variants of: B1
Experiment: self-cleavage, relative activity (ratio to wild type); higher = more cleavage; co-transcriptional

Variant | self-cleavage
G15C G69C | 0.275
G15C G69A | 0.414
C16A A35G | 1.06
C16A G19U | 0.862
G15U A47U | 0.215
G15U A47C | 0.324
C16A U33A | 0.17
C16G A39C | 0.374
G15U A61G | 0.164
G15U A61U | 0.182
C16A G51U | 0.861
C16A A31G | 0.536
G15C U67G | 0.294
G15U G25U | 0.778
G15U A44U | 0.174
G15U A44G | 0.0895
C16G A45G | 0.126
C16A C38G | 0.114
G15U A59U | 0.0728
C16A A64G | 0.455
C16A G68A | 0.305
C16G C48U | 0.154
G15U U67G | 0.364
G15C U33G | 0.0645

Variant | self-cleavage
G15C U33C | 0.233
C16G G56C | 0.2
C16G C66A | 0.197
C16G A47U | 0.06
C16A G42C | 0.304
C16A A22U | 0.816
C16G G17U | 1.08
C16A A59U | 0.212
C16G C46G | 0.183
C16G C46A | 0.224
G15U | 1.08
C16A A43G | 0.118
C16A A43C | 0.116
G15U C16G | 1.09
G15U A31G | 0.795
G15U A31U | 0.232
G15U C50U | 0.49
C16A U20C | 0.956
C16A U58C | 0.937
G15U C38G | 0.149
C16G A41C | 1.12
G15U A36C | 0.839
G15U A36U | 0.606
C16A G40A | 0.28

Variant | self-cleavage
C16A G40C | 0.157
C16A C46A | 0.197
C16A C46G | 0.143
C16A G17A | 1.02
C16A G17C | 0.85
G15U A39C | 0.7
C16A A23C | 0.983
C16G A35G | 0.797
C16G A22G | 0.828
G15C U62A | 0.14
G15U U70G | 0.873
G15C G68A | 0.324
C16A U63A | 0.132
C16A U63G | 0.253
C16G G54C | 0.393
G15U A30G | 0.122
G15U A30C | 0.173
C16G A26U | 0.293
C16G A28G | 0.959
C16G A28U | 0.483
C16A U53A | 0.936
C16A U53G | 0.877
G15U G17A | 1.05
G15C U52A | 1.19

Variant | self-cleavage
G15C U52C | 1.05
G15U G42U | 0.369
C16G C37U | 0.346
G15U A35U | 0.842
C16G A59C | 0.17
C16G G29U | 0.0825
C16G G29A | 0.202
C16G G40U | 0.173
C16G G40C | 0.143
C16G C38G | 0.191
C16G C38A | 0.154
C16G A49C | 0.117
G15U C65U | 0.33
G15U A64U | 0.139
C16G | 0.774
C16A | 0.903
G15U U53G | 0.645
G15U U63C | 0.14
G15U U63G | 0.108
C16G G34C | 1.22
G15U G29U | 0.124
C16A A24C | 0.71
C16A A24G | 0.763
G15C U63G | 0.127

Variant | self-cleavage
C16A C48A | 0.123
G15U G40C | 0.0954
G15U A23G | 0.87
G15U A23C | 1.14
G15U A23U | 0.918
C16A A36C | 0.399
C16G G32A | 0.179
C16A G56C | 0.212
C16G C50G | 0.157
C16A A44U | 0.133
G15U U60A | 0.932
G15U U60G | 0.57
G15U A49G | 0.539
C16A C37U | 0.519
G15U G57C | 0.128
C16A G25C | 0.499
G15U G21A | 0.872
G15U G21U | 0.868
G15U G21C | 0.829
G15U G54A | 0.695
G15U G54U | 0.632
C16A A49C | 0.0771
C16A C50U | 0.309
C16A C50A | 0.361

Variant | self-cleavage
C16G G21A | 0.515
C16G G21C | 0.285
G15U C66U | 0.574
C16A G57U | 0.242
C16A C65U | 0.242
C16A A71C | 1.1
C16A A71G | 1.04
C16G A44C | 0.0851
C16G A44U | 0.16
G15C U58A | 0.751
G15C U58C | 0.974
G15U A22C | 0.681
G15U A22G | 1.12
C16A C66A | 0.108
C16G A61C | 0.2
G15U G34C | 1.33
G15U G34A | 1.33
G15U U58A | 0.831
C16A A26C | 0.488
G15C U60G | 0.466
G15U A41C | 1.11
G15U A41U | 1.41
G15U G56A | 0.187
G15U G19C | 1

Variant | self-cleavage
C16A G69C | 0.205
C16G G42C | 0.152
C16A U55C | 0.288
C16G A24G | 0.568
C16A U60C | 0.836
C16A U60A | 0.767
C16A U60G | 0.451
C16A A39U | 0.364
C16A A39G | 0.243
G15U A45C | 0.169
G15U A45G | 0.184
C16A U62A | 0.199
C16A G54C | 0.432
C16A G54U | 0.595
G15U G27U | 0.35
C16A U52A | 0.982
C16A U52C | 0.841
C16G A43U | 0.157
C16A G21A | 0.67
C16A G21C | 0.605
G15C U70A | 0.848
C16G A23G | 0.751
G15U C46A | 0.167
